T1: KW27-3 (human CD39 mutant, C-terminal EGFP) (human, UniProt P49961 1-510)
T1 construct: expressed on HEK293F cells; not shown: C-terminal EGFP fusion (vector pCMV3-GFPSpark)
T1 chain: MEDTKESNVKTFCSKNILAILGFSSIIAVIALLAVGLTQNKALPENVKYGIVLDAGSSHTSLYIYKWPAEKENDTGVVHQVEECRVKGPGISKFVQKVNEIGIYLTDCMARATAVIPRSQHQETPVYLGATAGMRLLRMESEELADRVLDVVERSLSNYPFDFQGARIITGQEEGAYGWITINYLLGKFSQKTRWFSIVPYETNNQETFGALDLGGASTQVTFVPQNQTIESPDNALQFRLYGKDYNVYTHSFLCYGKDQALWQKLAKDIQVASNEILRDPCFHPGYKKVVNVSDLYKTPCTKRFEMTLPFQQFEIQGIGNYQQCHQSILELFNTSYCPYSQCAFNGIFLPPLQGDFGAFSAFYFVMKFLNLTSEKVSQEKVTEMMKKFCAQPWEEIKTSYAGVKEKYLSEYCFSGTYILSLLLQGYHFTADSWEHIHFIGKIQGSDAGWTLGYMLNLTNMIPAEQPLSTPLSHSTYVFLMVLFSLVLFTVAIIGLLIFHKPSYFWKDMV

T2: KW27-5 (human CD39 mutant, C-terminal EGFP) (human, UniProt P49961 1-510)
T2 construct: expressed on HEK293F cells; not shown: C-terminal EGFP fusion (vector pCMV3-GFPSpark)
T2 chain: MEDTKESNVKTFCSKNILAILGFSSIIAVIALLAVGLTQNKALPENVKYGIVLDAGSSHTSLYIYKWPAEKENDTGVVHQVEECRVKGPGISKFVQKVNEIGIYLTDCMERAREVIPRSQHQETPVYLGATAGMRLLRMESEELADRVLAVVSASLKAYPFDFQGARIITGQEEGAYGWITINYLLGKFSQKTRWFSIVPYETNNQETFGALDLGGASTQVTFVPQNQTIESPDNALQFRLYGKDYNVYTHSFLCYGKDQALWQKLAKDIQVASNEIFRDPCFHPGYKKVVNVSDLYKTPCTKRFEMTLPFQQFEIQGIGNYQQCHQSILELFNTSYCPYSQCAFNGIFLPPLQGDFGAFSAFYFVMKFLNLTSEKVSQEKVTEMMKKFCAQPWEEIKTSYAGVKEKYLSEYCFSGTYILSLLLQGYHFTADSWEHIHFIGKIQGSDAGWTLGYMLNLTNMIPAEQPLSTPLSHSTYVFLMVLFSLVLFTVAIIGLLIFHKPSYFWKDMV

T3: KW27-8 (human CD39 mutant, C-terminal EGFP) (human, UniProt P49961 1-510)
T3 construct: expressed on HEK293F cells; not shown: C-terminal EGFP fusion (vector pCMV3-GFPSpark)
T3 chain: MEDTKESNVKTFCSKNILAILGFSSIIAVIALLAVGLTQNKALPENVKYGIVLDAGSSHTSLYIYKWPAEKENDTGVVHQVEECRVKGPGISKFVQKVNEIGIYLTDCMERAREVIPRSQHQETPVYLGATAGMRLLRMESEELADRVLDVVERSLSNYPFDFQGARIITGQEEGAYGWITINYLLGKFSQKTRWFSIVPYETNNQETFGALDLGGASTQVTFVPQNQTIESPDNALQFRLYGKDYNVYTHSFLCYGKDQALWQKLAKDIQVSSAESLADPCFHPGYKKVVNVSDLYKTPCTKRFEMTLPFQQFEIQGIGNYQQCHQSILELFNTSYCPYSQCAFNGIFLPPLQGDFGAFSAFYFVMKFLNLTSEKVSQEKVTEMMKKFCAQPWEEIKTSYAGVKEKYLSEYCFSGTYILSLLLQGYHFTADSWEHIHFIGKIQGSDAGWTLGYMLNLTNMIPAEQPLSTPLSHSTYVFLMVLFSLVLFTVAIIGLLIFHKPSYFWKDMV

T4: KW27-14 (human CD39 mutant, C-terminal EGFP) (human, UniProt P49961 1-510)
T4 construct: expressed on HEK293F cells; not shown: C-terminal EGFP fusion (vector pCMV3-GFPSpark)
T4 chain: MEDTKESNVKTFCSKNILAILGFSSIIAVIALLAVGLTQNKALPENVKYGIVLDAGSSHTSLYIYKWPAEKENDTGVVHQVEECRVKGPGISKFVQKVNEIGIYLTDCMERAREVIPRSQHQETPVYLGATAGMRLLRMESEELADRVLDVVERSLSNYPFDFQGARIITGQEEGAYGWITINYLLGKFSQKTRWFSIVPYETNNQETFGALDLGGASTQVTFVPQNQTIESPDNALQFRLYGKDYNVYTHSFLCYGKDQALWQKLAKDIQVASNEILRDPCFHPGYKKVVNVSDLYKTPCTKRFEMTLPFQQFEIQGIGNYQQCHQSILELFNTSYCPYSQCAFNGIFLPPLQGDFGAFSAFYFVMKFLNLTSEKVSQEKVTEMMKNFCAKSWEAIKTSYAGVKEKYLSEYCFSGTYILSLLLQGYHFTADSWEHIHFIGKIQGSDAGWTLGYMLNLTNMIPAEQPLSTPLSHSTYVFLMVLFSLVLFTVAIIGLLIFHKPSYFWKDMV


Tests used:
Test in all cases: FACS, mutant-EGFP on HEK293F cells
[1] = molecular target: T1, KW27-3 (human CD39 mutant, C-terminal …)
Experimental: (§1) Briefly, the human CD39 mutants were generated by gene synthesis and then cloned into an expression vector pCMV3-GFPSpark. The vectors containing the validated mutated sequences were prepared and transfected into HEK293F cells. Three days post transfection, the cells were collected to testing EGFP for transgene expression. A range of dosages of antibodies (start from 100 nM, 3-folds dilution, 11 points) were tested on the 20 generated mutants and stained by AlexFluor647 labelled anti-hIgG by FACS. Antibody binding was descripted as relative binding which is derived from AlexFluor647 intensity divided by GFP intensity.

[2] = molecular target: T2, KW27-5 (human CD39 mutant, C-terminal …)
Experimental: as §1

[3] = molecular target: T3, KW27-8 (human CD39 mutant, C-terminal …)
Experimental: as §1

[4] = molecular target: T4, KW27-14 (human CD39 mutant, C-terminal …)
Experimental: as §1

Binder	binding result [1]	binding result [2]	binding result [3]	binding result [4]
hu23.H5L5 (antibody, V domains shown, humanized c23) VH: QVQLVQSGAEVKKPGASVKVSCKASGYNLKDTFLHWVRQAPGQGLEWMGRIDPANGNIKYDPKFQGRVTITADTSANTAYMELISLRSEDTAVYYCANSPYYYGSGYRIFDVWGQGTTVTVSS VL: QIVLTQSPATLSLSPGERATLSCSAFSSVNYMHWYQQKPGQAPRLLIYTTSNLASGIPTRFSGSGSGTSYTLTISSLEPEDFAVYYCQQRSTYPFTFGQGTKLEIK	binds	binds	binds	binds
c35 (antibody, V domains shown, its making is not described; also called chimeric antibody c35) VH: EVRLQQSGAELVKPGASVKLSCTASGFNIEDTYVHWMKQRPEQGLEWIGRIDPAIDNSKYDPKFQGKATITAVSSSNTAYLQLSSLTSEDTAVYYCALYDGYNVYAMDYWGQGTSVTVSS VL: DIVMTQAAFSNPVTLGTSASISCRSSKNLLHSNGITYLYWYLQRPGQSPQLLIYRASTLASGVPNRFSGSESGTDFTLRISRVEAEDVGVYYCAQLLELPHTFGGGTKLEIK	binds	binds	binds	binds

Other lines, results leading:

binding result [1]	binding result [2]	binding result [3]	binding result [4]	Binder
binds	binds	binds	binds	Antibody 9-8B (antibody, V domains shown) VH: QIQLVQSGPELKKPGETVKISCKASGYTFTHYGMNWVKQAPGKGLKWMGWINTYTGELTYADDFKGRFAFSLETSASTAYLQINNLKNEDTATYFCARRAYYRYDYVMDYWGQGTSVTVSS VL: DIVMTQSQKFMSTSVGDRVSVTCKASHNVGTNVAWYQQKPGQSPKALIYSASYRYSGVPGRFTGSGSGTDFTLTISNVQSEDLAEYFCHQYNNYPYTFGGGTKLEIK
binds	binds	binds	binds	Antibody T895 (antibody, V domains shown, also called 31895) VH: EVQLQQSGPELVKPGASVKMSCKASGYTFTDYNMHWVKQSHGRTLEWIGYIVPLNGGSTFNQKFKGRATLTVNTSSRTAYMELRSLTSEDSAAYYCARGGTRFAYWGQGTLVTVSA VL: not shown
binds	binds	binds	binds	c34 (antibody, V domains shown, its making is not described; also called chimeric antibody c34) VH: EIQVQQSGPELVKPGASVKVSCKASGYSFTDYNMYWVKQSHGKSLEWIGFIDPYNGYTSYNQKFKGKATLTIDKSSSTAFMHLNSLTSEDSAVYYCAIYGYDDAYYFDYWGQGTTLTVSS VL: QIVLTQSPAIMSASPGEKVTITCSATSSVSYMHWFRQKPGTSPKLWIYSTSNLASGVPARFSGSGSGTSYSLTISRMAAEDAATYYCQQRITYPFTFGSGTKLEIT

Reference: patent publication US20210388105A1 (ELPISCIENCE SUZHOU BIOPHARMA, published 2021)
